The record followed here is PMC8908544 (Structure (London, England : 1993), 2022).

One assay deals with SARS-CoV RBD (306-527) (SARS-CoV, UniProt P59594 306-527). The experiment in a line: BLI. A general note: BLI is a label-free optical method that tracks binding on a fibre tip over time.
Assay [1] has as its target T1, receptor binding domain (RBD) of SARS-CoV-2 spike protein (SARS-CoV-2, UniProt P0DTC2 333-523). The experiment in a line: ELISA. On the technique in general: In an ELISA, binding on a coated surface is turned into a signal by an enzyme label.
Assay [2] addresses T1, receptor binding domain (RBD) of …. The experiment in a line: BLI.

As usually defined, the Kd is the equilibrium constant for the complex coming apart. The low end stands for higher affinity, the high end for lower affinity. By IC50 is commonly meant the point on the concentration scale where inhibition reaches its midpoint.

B1: NB1A7 (VHH)
VHH: QVQLQESGGGSVQAGGSLRLSCAASGYTFSSYCLGWFRQAPGKEREGVAAIDSDGSTSYADSVKGRFTISRDNAKNTLYLQMNSLKPEDTAMYYCAAEGGPSLSYCTGGYGFLLSGLMYNSWGQGTQVTVSS
B1 had a Kd with SARS-CoV RBD (306-527) of 471 nM.

B2: NB1B11 (VHH)
VHH: QVQLQESGGGSVQAGGSLRLSCAASGYTVSVGCMAWFRQAPGKEREGVAGIDASGITKYSDSVKGRFTISKDNAKNALDLQMNGLKPEDTAMYHCAAGLVRGSCTDVLDHPSYLGVWGQGTQVTVSS
The molecule B2 came in with an IC50 in assay [1] of 709 nM. Moreover, in assay [2], the Kd was 6.76 ± 0.027 nM.

B3: format II: bi-paratopic and multivalent nanobody NB1A7-(GGGGS)4-NB1B11-Fc (bispecific antibody)
chain: QVQLQESGGGSVQAGGSLRLSCAASGYTFSSYCLGWFRQAPGKEREGVAAIDSDGSTSYADSVKGRFTISRDNAKNTLYLQMNSLKPEDTAMYYCAAEGGPSLSYCTGGYGFLLSGLMYNSWGQGTQVTVSSGGGGSGGGGSGGGGSGGGGSQVQLQESGGGSVQAGGSLRLSCAASGYTVSVGCMAWFRQAPGKEREGVAGIDASGITKYSDSVKGRFTISKDNAKNALDLQMNGLKPEDTAMYHCAAGLVRGSCTDVLDHPSYLGVWGQGTQVTVSSGGGGS
Molecule B3 showed an IC50 in assay [1] of 37.5 nM. This molecule also showed a Kd in assay [2] of under 0.001 nM.

B4: NB1C6 (VHH)
VHH: QVQLQESGGGSVQAGGRLRLSCAASGDTYSSYCMGWFRQAPGKEREGVAAIYIGGDNTYYADSAKGRFTISQDYDKNTAYLQMNSLKSEDTAMYYCAAELFCPWPDIGTMSPAEYKYWGQGTQVTVSS
On to B4, for which the affinity in assay [2], expressed as Kd, was 5.07 ± 0.05 nM.
